This is an account of results in paper PMC5241739, “Structure of the Toll/Interleukin-1 Receptor (TIR) Domain of the B-cell Adaptor That Links Phosphoinositide Metabolism with the Negative Regulation of the Toll-like Receptor (TLR) Signalosome*^([image sbox.jpg])” (The Journal of Biological Chemistry, 2016).

The data set deals with the molecule itself. The data set is described as follows: AUC; sedimentation velocity, Beckman XL-A, 0.3 to 1 mg/ml, 30,000–40,000 rpm, c(S) and c(M) analysis with SEDFIT.

B1: BCAP330, the first 330 residues of BCAPL (domain or fragment, human, UniProt Q6ZUJ8-1 1-330, looked up)
chain: MAASGVPRGCDILIVYSPDAEEWCQYLQTLFLSSRQVRSQKILTHRLGPEASFSAEDLSLFLSTRCVVVLLSAELVQHFHKPALLPLLQRAFHPPHRVVRLLCGVRDSEEFLDFFPDWAHWQELTCDDEPETYVAAVKKAISEDSGCDSVTDTEPEDEKVVSYSKQQNLPTVTSPGNLMVVQPDRIRCGAETTVYVIVRCKLDDRVATEAEFSPEDSPSVRMEAKVENEYTISVKAPNLSSGNVSLKIYSGDLVVCETVISYYTDMEEIGNLLSNAANPVEFMCQAFKIVPYNTETLDKLLTESLKNNIPASGLHLFGINQLEEEDMMTN
notes: B-cell adaptor for phosphoinositide 3-kinase (BCAP), human, the N-terminal 330 residues (TIR and DBB domains); also called N-terminal variant; source: cloned into pMCSG7, purified (StrepTrap, S200 size exclusion)
B1: the “stoichiometry N” value is 2.

B2: Full-length BCAP, BCAPL (1–805) (natural protein, human, UniProt Q6ZUJ8-1 1-805, looked up)
chain: MAASGVPRGCDILIVYSPDAEEWCQYLQTLFLSSRQVRSQKILTHRLGPEASFSAEDLSLFLSTRCVVVLLSAELVQHFHKPALLPLLQRAFHPPHRVVRLLCGVRDSEEFLDFFPDWAHWQELTCDDEPETYVAAVKKAISEDSGCDSVTDTEPEDEKVVSYSKQQNLPTVTSPGNLMVVQPDRIRCGAETTVYVIVRCKLDDRVATEAEFSPEDSPSVRMEAKVENEYTISVKAPNLSSGNVSLKIYSGDLVVCETVISYYTDMEEIGNLLSNAANPVEFMCQAFKIVPYNTETLDKLLTESLKNNIPASGLHLFGINQLEEEDMMTNQRDEELPTLLHFAAKYGLKNLTALLLTCPGALQAYSVANKHGHYPNTIAEKHGFRDLRQFIDEYVETVDMLKSHIKEELMHGEEADAVYESMAHLSTDLLMKCSLNPGCDEDLYESMAAFVPAATEDLYVEMLQASTSNPIPGDGFSRATKDSMIRKFLEGNSMGMTNLERDQCHLGQEEDVYHTVDDDEAFSVDLASRPPVPVPRPETTAPGAHQLPDNEPYIFKVFAEKSQERPGNFYVSSESIRKGPPVRPWRDRPQSSIYDPFAGMKTPGQRQLITLQEQVKLGIVNVDEAVLHFKEWQLNQKKRSESFRFQQENLKRLRDSITRRQREKQKSGKQTDLEITVPIRHSQHLPAKVEFGVYESGPRKSVIPPRTELRRGDWKTDSTSSTASSTSNRSSTRSLLSVSSGMEGDNEDNEVPEVTRSRSPGPPQVDGTPTMSLERPPRVPPRAASQRPPTRETFHPPPPVPPRGR
notes: B-cell adaptor for phosphoinositide 3-kinase (BCAP), human, full-length form BCAPL, residues 1-805; Cloned into the same vector as the His6-tagged TIR domain; source: cloned into pMCSG7, purified (StrepTrap, S200 size exclusion)
B2: the “stoichiometry N” value was found to be 2.

B3: BCAPS, splice variant of BCAP (natural protein, human, UniProt Q6ZUJ8-2 1-627, looked up)
chain: MVVQPDRIRCGAETTVYVIVRCKLDDRVATEAEFSPEDSPSVRMEAKVENEYTISVKAPNLSSGNVSLKIYSGDLVVCETVISYYTDMEEIGNLLSNAANPVEFMCQAFKIVPYNTETLDKLLTESLKNNIPASGLHLFGINQLEEEDMMTNQRDEELPTLLHFAAKYGLKNLTALLLTCPGALQAYSVANKHGHYPNTIAEKHGFRDLRQFIDEYVETVDMLKSHIKEELMHGEEADAVYESMAHLSTDLLMKCSLNPGCDEDLYESMAAFVPAATEDLYVEMLQASTSNPIPGDGFSRATKDSMIRKFLEGNSMGMTNLERDQCHLGQEEDVYHTVDDDEAFSVDLASRPPVPVPRPETTAPGAHQLPDNEPYIFKVFAEKSQERPGNFYVSSESIRKGPPVRPWRDRPQSSIYDPFAGMKTPGQRQLITLQEQVKLGIVNVDEAVLHFKEWQLNQKKRSESFRFQQENLKRLRDSITRRQREKQKSGKQTDLEITVPIRHSQHLPAKVEFGVYESGPRKSVIPPRTELRRGDWKTDSTSSTASSTSNRSSTRSLLSVSSGMEGDNEDNEVPEVTRSRSPGPPQVDGTPTMSLERPPRVPPRAASQRPPTRETFHPPPPVPPRGR
notes: The first residue is worked out from the legend's words 'lacks the first 180 amino acids'; source: cloned into pMCSG7, purified (StrepTrap, S200 size exclusion)
As to B3, the “stoichiometry N” value was found to be 2.
